Assay [1] concerns the target clathrin adaptor AP-1, endogenous in 293T cells (detected by its γ-adaptin subunit), O43747;Q9BXS5;P61966. Description: cross-linking co-immunoprecipitation (anti-HA IP), Western blot quantification. The conditions noted are these: read off a plot. (In general: In western blotting, separated proteins are transferred to a membrane and probed.)
For assay [2], the target named is clathrin adaptor AP-2, endogenous in 293T cells (detected by its α adaptin subunit), O95782;Q96CW1;P53680. The description is as above. The conditions noted are these: read off a plot.
[3] abbreviates: 293T tetherin Y6,8A cells, PFA (0.05% w/v) cross-linking, 48 h post transfection, parent: est. 1.8.
Setting [4] is: 293T tetherin cells, PFA (0.05% w/v) cross-linking, 48 h post transfection, parent: est. 1.5.
Setting [5] is: 293T tetherin Y6,8A cells, PFA (0.05% w/v) cross-linking, 48 h post transfection, parent: est. 2.3.
[6] abbreviates: 293T tetherin cells, PFA (0.05% w/v) cross-linking, 48 h post transfection, parent: est. 0.9.
Setting [7] is: 293T tetherin Y6,8A cells, DMSO, PFA (0.05% w/v) cross-linking, 48 h post transfection, parent: est. 2.5.
[8] abbreviates: 293T tetherin Y6,8A cells, DMSO, PFA (0.05% w/v) cross-linking, 48 h post transfection, parent: est. 1.7.

For the substance “HIV-1 NL4.3 Vpu-HA (codon optimized, pCR3.1 Vpu-HA) A14L; W22A”, the response (% relative to input control) in assay [1] (setting [3]) worked out at 0; in assay [1] (setting [4]), 0.45; in assay [2] (setting [5]), 0; in assay [2] (setting [6]), 0.

With “HIV-1 NL4.3 Vpu-HA (codon optimized, pCR3.1 Vpu-HA) ELV”, the response (% relative to input control) in assay [1] (setting [7]) was 0; in assay [1] (setting [3]) it was 0; in assay [1] (setting [4]), 0.95; in assay [1] (parent: est. 0) it was 0; in assay [2] (setting [8]) it was 0; in assay [2] (setting [5]), 0. Moreover, the response (% relative to input control) in assay [2] (setting [6]) and in assay [2] (parent: est. 0) was 0 each time.

As for “HIV-1 NL4.3 Vpu-HA (codon optimized, pCR3.1 Vpu-HA) L41A; I42A; L45A; I46A”, the response (% relative to input control) in assay [1] (setting [3]) stood at 0; in assay [1] (setting [4]), 0.1; in assay [2] (setting [5]) it was 0; in assay [2] (setting [6]), 0.

On to “HIV-1 NL4.3 Vpu-HA (codon optimized, pCR3.1 Vpu-HA) N54H; E55G”, for which the response (% relative to input control) in assay [1] (setting [3]), in assay [1] (setting [4]), in assay [2] (setting [5]) and in assay [2] (setting [6]) was 0 each time.

As to “HIV-1 NL4.3 Vpu-HA (codon optimized, pCR3.1 Vpu-HA) S52A; S56A”, the response (% relative to input control) in assay [1] (setting [7]) came out at 0; in assay [1] (setting [3]), 0; in assay [1] (setting [4]), 1; in assay [1] (parent: est. 0) it was 0; in assay [2] (setting [8]), 0; in assay [2] (setting [5]), 0. Moreover, the response (% relative to input control) in assay [2] (setting [6]) and in assay [2] (parent: est. 0) was 0 each time.

For the origin of these results see publication PMC4552633.
